Assay results taken from patent US20200270325A1 (Merck Sharp & Dohme, published 2020).
Numbered stars: 1 amine (or outer) side, 2 acyl side, 3 side chain; on linkers, the order of the positions; unused ones are H or OH. Square brackets hold non-standard residues; d marks the D form. Side chains are listed from the residue outwards. Ends that are not written are not given here. * marks the point of attachment. Phe(4-CH2NH2) = NCc1ccc(C[C@H](N)C(=O)O)cc1; C18 diacid = O=C(O)CCCCCCCCCCCCCCCCC(=O)*; γGlu = O=C(O)[C@H](CCC(=O)[*:2])N[*:1]; Met(O2) = CS(=O)(=O)CC[C@H](N)C(=O)O; AEEA = NCCOCCOCC(=O)O; Aib = CC(C)(N)C(=O)O; C16 = lipid (C16)

What was measured:
[1] = molecular target: human Glucagon receptor (GCGR) (human, UniProt P47871 26-477); test: cell-based or functional assay
[2] = molecular target: human GLP-1 receptor (GLP1R) (human, UniProt P43220 24-463); test: cell-based or functional assay

Chain of human Glucagon receptor (GCGR) (P47871 26-477): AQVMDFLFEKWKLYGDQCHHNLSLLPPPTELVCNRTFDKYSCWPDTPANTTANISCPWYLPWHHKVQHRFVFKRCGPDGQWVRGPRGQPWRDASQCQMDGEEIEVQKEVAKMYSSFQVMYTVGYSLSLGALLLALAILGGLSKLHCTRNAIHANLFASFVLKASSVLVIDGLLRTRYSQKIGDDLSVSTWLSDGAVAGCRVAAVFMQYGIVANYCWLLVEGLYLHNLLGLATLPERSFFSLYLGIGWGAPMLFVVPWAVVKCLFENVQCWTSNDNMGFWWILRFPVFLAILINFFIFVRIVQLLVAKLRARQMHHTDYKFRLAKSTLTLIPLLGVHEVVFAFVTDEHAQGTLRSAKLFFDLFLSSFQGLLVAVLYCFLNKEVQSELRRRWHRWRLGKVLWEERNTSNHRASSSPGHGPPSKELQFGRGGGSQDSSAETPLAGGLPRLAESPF

Row | Binder | GCGR EC50 human [1] [nM] | GLP1R EC50 human [2] [nM]
1 | H[Aib]QGTFLSDYSKYLDARAAK([AEEA-AEEA-γGlu-C18 diacid])DFVQWL[Met(O2)]DT-NH2 (N-terminus assumed; SMILES CC(C)C[C@H](NC(=O)[C@H](Cc1ccc(O)cc1)NC(=O)[C@H](CCCCN)NC(=O)[C@H](CO)NC(=O)[C@H](Cc1ccc(O)cc1)NC(=O)[C@H](CC(=O)O)NC(=O)[C@H](CO)NC(=O)[C@H](CC(C)C)NC(=O)[C@H](Cc1ccccc1)NC(=O)[C@@H](NC(=O)CNC(=O)[C@H](CCC(N)=O)NC(=O)C(C)(C)NC(=O)[C@@H](N)Cc1c[nH]cn1)[C@@H](C)O)C(=O)N[C@@H](CC(=O)O)C(=O)N[C@@H](C)C(=O)N[C@@H](CCCNC(=N)N)C(=O)N[C@@H](C)C(=O)N[C@@H](C)C(=O)N[C@@H](CCCCNC(=O)COCCOCCNC(=O)COCCOCCNC(=O)CC[C@H](NC(=O)CCCCCCCCCCCCCCCCC(=O)O)C(=O)O)C(=O)N[C@@H](CC(=O)O)C(=O)N[C@@H](Cc1ccccc1)C(=O)N[C@H](C(=O)N[C@@H](CCC(N)=O)C(=O)N[C@@H](Cc1c[nH]c2ccccc12)C(=O)N[C@@H](CC(C)C)C(=O)N[C@@H](CCS(C)(=O)=O)C(=O)N[C@@H](CC(=O)O)C(=O)N[C@H](C(N)=O)[C@@H](C)O)C(C)C) [TP596] | 0.35 | > 20
2 | H[Aib]QGTFFSDYSKYLDARAAK([AEEA-AEEA-γGlu-C18 diacid])DFVQWL[Met(O2)]DT-NH2 (N-terminus assumed; SMILES CC(C)C[C@H](NC(=O)[C@H](Cc1ccc(O)cc1)NC(=O)[C@H](CCCCN)NC(=O)[C@H](CO)NC(=O)[C@H](Cc1ccc(O)cc1)NC(=O)[C@H](CC(=O)O)NC(=O)[C@H](CO)NC(=O)[C@H](Cc1ccccc1)NC(=O)[C@H](Cc1ccccc1)NC(=O)[C@@H](NC(=O)CNC(=O)[C@H](CCC(N)=O)NC(=O)C(C)(C)NC(=O)[C@@H](N)Cc1c[nH]cn1)[C@@H](C)O)C(=O)N[C@@H](CC(=O)O)C(=O)N[C@@H](C)C(=O)N[C@@H](CCCNC(=N)N)C(=O)N[C@@H](C)C(=O)N[C@@H](C)C(=O)N[C@@H](CCCCNC(=O)COCCOCCNC(=O)COCCOCCNC(=O)CC[C@H](NC(=O)CCCCCCCCCCCCCCCCC(=O)O)C(=O)O)C(=O)N[C@@H](CC(=O)O)C(=O)N[C@@H](Cc1ccccc1)C(=O)N[C@H](C(=O)N[C@@H](CCC(N)=O)C(=O)N[C@@H](Cc1c[nH]c2ccccc12)C(=O)N[C@@H](CC(C)C)C(=O)N[C@@H](CCS(C)(=O)=O)C(=O)N[C@@H](CC(=O)O)C(=O)N[C@H](C(N)=O)[C@@H](C)O)C(C)C) [TP595] | 0.4 | > 20
3 | H[Aib]QGTFTSDYSKYLDARAAQDFV[Phe(4-CH2NH2)]([AEEA-AEEA-γGlu-C18 diacid])WLLDT-NH2 (N-terminus assumed; SMILES CC(C)C[C@H](NC(=O)[C@H](Cc1ccc(O)cc1)NC(=O)[C@H](CCCCN)NC(=O)[C@H](CO)NC(=O)[C@H](Cc1ccc(O)cc1)NC(=O)[C@H](CC(=O)O)NC(=O)[C@H](CO)NC(=O)[C@@H](NC(=O)[C@H](Cc1ccccc1)NC(=O)[C@@H](NC(=O)CNC(=O)[C@H](CCC(N)=O)NC(=O)C(C)(C)NC(=O)[C@@H](N)Cc1c[nH]cn1)[C@@H](C)O)[C@@H](C)O)C(=O)N[C@@H](CC(=O)O)C(=O)N[C@@H](C)C(=O)N[C@@H](CCCNC(=N)N)C(=O)N[C@@H](C)C(=O)N[C@@H](C)C(=O)N[C@@H](CCC(N)=O)C(=O)N[C@@H](CC(=O)O)C(=O)N[C@@H](Cc1ccccc1)C(=O)N[C@H](C(=O)N[C@@H](Cc1ccc(CNC(=O)COCCOCCNC(=O)COCCOCCNC(=O)CC[C@H](NC(=O)CCCCCCCCCCCCCCCCC(=O)O)C(=O)O)cc1)C(=O)N[C@@H](Cc1c[nH]c2ccccc12)C(=O)N[C@@H](CC(C)C)C(=O)N[C@@H](CC(C)C)C(=O)N[C@@H](CC(=O)O)C(=O)N[C@H](C(N)=O)[C@@H](C)O)C(C)C) [TP583] | 6.37 | 0.74
4 | H[Aib]QGTFTSDYSKYLDALAAK([AEEA-AEEA-γGlu-C18 diacid])DFVQWL[Met(O2)]DT-NH2 (N-terminus assumed; SMILES CC(C)C[C@H](NC(=O)[C@H](C)NC(=O)[C@H](CC(=O)O)NC(=O)[C@H](CC(C)C)NC(=O)[C@H](Cc1ccc(O)cc1)NC(=O)[C@H](CCCCN)NC(=O)[C@H](CO)NC(=O)[C@H](Cc1ccc(O)cc1)NC(=O)[C@H](CC(=O)O)NC(=O)[C@H](CO)NC(=O)[C@@H](NC(=O)[C@H](Cc1ccccc1)NC(=O)[C@@H](NC(=O)CNC(=O)[C@H](CCC(N)=O)NC(=O)C(C)(C)NC(=O)[C@@H](N)Cc1c[nH]cn1)[C@@H](C)O)[C@@H](C)O)C(=O)N[C@@H](C)C(=O)N[C@@H](C)C(=O)N[C@@H](CCCCNC(=O)COCCOCCNC(=O)COCCOCCNC(=O)CC[C@H](NC(=O)CCCCCCCCCCCCCCCCC(=O)O)C(=O)O)C(=O)N[C@@H](CC(=O)O)C(=O)N[C@@H](Cc1ccccc1)C(=O)N[C@H](C(=O)N[C@@H](CCC(N)=O)C(=O)N[C@@H](Cc1c[nH]c2ccccc12)C(=O)N[C@@H](CC(C)C)C(=O)N[C@@H](CCS(C)(=O)=O)C(=O)N[C@@H](CC(=O)O)C(=O)N[C@H](C(N)=O)[C@@H](C)O)C(C)C) [TP599] | 3.47 | 2.21

The remaining lines, values ahead:

Row | GCGR EC50 human [1] [nM] | GLP1R EC50 human [2] [nM] | Binder
5 | 1.8 | 8.5 | H[Aib]QGTFTSDK([γGlu-γGlu-C16])SKYLDARAAK([AEEA-AEEA-γGlu-C18 diacid])DFVQWL[Met(O2)]DT-NH2 [TP601]
6 | 2.17 | 0.36 | H[Aib]QGTFTSDYSKYLDARAAQDFVQWL[Met(O2)]K([AEEA-AEEA-γGlu-C18 diacid])T-NH2 (N-terminus assumed; SMILES CC(C)C[C@H](NC(=O)[C@H](Cc1ccc(O)cc1)NC(=O)[C@H](CCCCN)NC(=O)[C@H](CO)NC(=O)[C@H](Cc1ccc(O)cc1)NC(=O)[C@H](CC(=O)O)NC(=O)[C@H](CO)NC(=O)[C@@H](NC(=O)[C@H](Cc1ccccc1)NC(=O)[C@@H](NC(=O)CNC(=O)[C@H](CCC(N)=O)NC(=O)C(C)(C)NC(=O)[C@@H](N)Cc1c[nH]cn1)[C@@H](C)O)[C@@H](C)O)C(=O)N[C@@H](CC(=O)O)C(=O)N[C@@H](C)C(=O)N[C@@H](CCCNC(=N)N)C(=O)N[C@@H](C)C(=O)N[C@@H](C)C(=O)N[C@@H](CCC(N)=O)C(=O)N[C@@H](CC(=O)O)C(=O)N[C@@H](Cc1ccccc1)C(=O)N[C@H](C(=O)N[C@@H](CCC(N)=O)C(=O)N[C@@H](Cc1c[nH]c2ccccc12)C(=O)N[C@@H](CC(C)C)C(=O)N[C@@H](CCS(C)(=O)=O)C(=O)N[C@@H](CCCCNC(=O)COCCOCCNC(=O)COCCOCCNC(=O)CC[C@H](NC(=O)CCCCCCCCCCCCCCCCC(=O)O)C(=O)O)C(=O)N[C@H](C(N)=O)[C@@H](C)O)C(C)C) [TP602]
7 | 1.88 | 1.17 | H[Aib]QGTFTSDYSKYLDARAAQDFVQWL[Met(O2)]K([AEEA-AEEA-γGlu-C20‑OH])T-NH2 [TP603]
8 | 3.75 | 1.98 | H[Aib]QGTFTSDYSKYLDARAAQDFVQWL[Met(O2)][Phe(4-CH2NH2)]([AEEA-AEEA-γGlu-C20‑OH])T-NH2 [TP605]
